Read-outs that look alike come from different tables or passages of the source.
T1: human IL-17F homodimer (human, UniProt Q96PD4 31-163)
T1 sequence: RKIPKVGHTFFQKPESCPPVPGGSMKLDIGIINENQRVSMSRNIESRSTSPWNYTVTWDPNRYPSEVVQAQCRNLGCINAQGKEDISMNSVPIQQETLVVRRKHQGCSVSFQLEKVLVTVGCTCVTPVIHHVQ

B1: humanized anti-human IL-17A/F antibody 339-134 mAb IgG1.1 (antibody, V domains shown)
VH: QVQLVQSGAEVKKPGASVKVSCKASGYTFNEYTMHWVKQAPGQRLEWMGGINPNSGGVSYNQNFKGKATLTVDTSASTAYMELSSLRSEDTAVYYCARGGDGYYTNYFDIDYWGQGTTVTVSS
VL: DIQMTQSPSSLSASVGDRVTITCSASSSVNYMHWYQQKPGKVPKLLIYDTSKLASGVPSRFSGSGSGTDFTLTISSLQPEDVATYYCQQWNSHPLTFGQGTKLEIKR
notes: IgG1.1/kappa; also called MVC978/MVC717; humanized parent
B2: C/DVCV1 IgG1.1 (bispecific antibody)
heavy: QIQLVQSGPELKKPGETVEISCKASGYTFTDYLIFWVKQAPGKGLNWMGWINTETVEPTYADDFKGRFAFSLETSASTAHLLINNLKKEDTSTYFCARVPHLGPYYYAMDYWGQGTSVTVSSASTKGPSVFPLAPSSKSTSGGTAALGCLVKDYFPEPVTVSWNSGALTSGVHTFPAVLQSSGLYSLSSVVTVPSSSLGTQTYICNVNHKPSNTKVDKKVEPKSCGGGGSGGGGSQVTLKESGPGILQPSQTLSLTCSFSGFSLSTSGMGVGWIRQPSGKGLEWLANIWWDDDKRYNPALKSRLTISKDTSSNQVFLKIASVDTADTATYYCARIDYDYDRGAYHVMDYWGQGTSVTVSSEPKSSDKTHTCPPCPAPEAEGAPSVFLFPPKPKDTLMISRTPEVTCVVVDVSHEDPEVKFNWYVDGVEVHNAKTKPREEQYNSTYRVVSVLTVLHQDWLNGKEYKCKVSNKALPSSIEKTISKAKGQPREPQVYTLPPSRDELTKNQVSLTCLVKGFYPSDIAVEWESNGQPENNYKTTPPVLDSDGSFFLYSKLTVDKSRWQQGNVFSCSVMHEALHNHYTQKSLSLSPGK
light: DIVLKQSPASLGVALGQRATISCRASKSVSTSDFSYMHWYQQKPGQPPELLIYLASNLESGVPARFSGSGSGTDFTLNIHPVEEEDAATYYCQHSREFPPTFGAGTKLELKRTVAAPSVFIFPPSDEQLKSGTASVVCLLNNFYPREAKVQWKVDNALQSGNSQESVTEQDSKDSTYSLSSTLTLSKADYEKHKVYACEVTHQGLSSPVTKSFNRGECGGGGSGGGGSDIQMTQSPASLSVSVGETVTITCRTSENIFSNLAWYQQKQGKSPQLLVYDATNLADGVPSRFSGSGSGTQYSLKINSLQSEDFGTYYCQHFWYTPWTFGGGTKLEIK
B3: wild-type IL-23 (His-tagged p19 / non-tagged p40) (ligand, human)
chain 1: RAVPGGSSPAWTQCQQLSQKLCTLAWSAHPLVGHMDLREEGDEETTNDVPHIQCGDGCDPQGLRDNSQFCLQRIHQGLIFYEKLLGSDIFTGEPSLLPDSPVGQLHASLLGLSQLLQPEGHHWETQQIPSLSPSQPWQRLLLRFKILRSLQAFVAVAARVFAHGAATLSP
chain 2: IWELKKDVYVVELDWYPDAPGEMVVLTCDTPEEDGITWTLDQSSEVLGSGKTLTIQVKEFGDAGQYTCHKGGEVLSHSLLLLHKKEDGIWSTDILKDQKEPKNKTFLRCEAKNYSGRFTCWWLTTISTDLTFSVKSSRGSSDPQGVTCGAATLSAERVRGDNKEYEYSVECQEDSACPAAEESLPIEVMVDAVHKLKYENYTSSFFIRDIIKPDPPKNLQLKPLKNSRQVEVSWEYPDTWSTPHSYFSLTFCVQVQGKSKREKKDRVFTDKTSATVICRKNASISVRAQDRYYSSSWSEWASVPCS
B4: hIL-23R-Fc (Fc fusion, human, UniProt Q5VWK5 24-353, looked up)
chain: GITNINCSGHIWVEPATIFKMGMNISIYCQAAIKNCQPRKLHFYKNGIKERFQITRINKTTARLWYKNFLEPHASMYCTAECPKHFQETLICGKDISSGYPPDIPDEVTCVIYEYSGNMTCTWNAGKLTYIDTKYVVHVKSLETEEEQQYLTSSYINISTDSLQGGKKYLVWVQAANALGMEESKQLQIHLDDIVIPSAAVISRAETINATVPKTIIYWDSQTTIEKVSCEMRYKATTNQTWNVKEFDTNFTYVQQSEFYLEPNIKYVFQVRCQETGKRYWQPWSSLFFHKTPETVPQVTSKAFQHDTWNSGLTVASISTGHLTSDNRGD
notes: Bought from R&D Systems; also called human IL-23 receptor; p19 specific IL-23 receptor; not shown: Fc part of the commercial fusion (R&D Systems) not described
B5: Fab derived from the IL-17 arms of biAb3 (Lead Fab A3185F) (Fab, V domains shown)
VH: B1 VH
VL: not shown
notes: Expressed periplasmically in E. coli, purified by IMAC (tag not described); also called humanized lead Fab; biAb Fab

Tests used:
[1] = biological target: T2, human IL-17A homodimer (human, UniProt Q16552 24-155); test: SPR Biacore T100, captured antibody, bivalent analyte model
T2 construct: Recombinant (HEK293, ZymoGenetics); also called hIL-17A; IL-17A A2999F

[2] = biological target: T1, human IL-17F homodimer; test: cell-based or functional assay
[3] = biological target: T2, human IL-17A homodimer; test: cell-based or functional assay
[4] = biological target: T3, human IL-17A/F heterodimer (human, UniProt Q16552 24-155; Q96PD4 31-163); test: cell-based or functional assay
[5] = biological target: T3, human IL-17A/F heterodimer; test: SPR Biacore T100, captured antibody, bivalent analyte model
[6] = biological target: T1, human IL-17F homodimer; test: cell-based or functional assay; remark: listed apart in the source
[7] = biological target: T2, human IL-17A homodimer; test: cell-based or functional assay; remark: listed apart in the source
[8] = biological target: T3, human IL-17A/F heterodimer; test: cell-based or functional assay; remark: listed apart in the source
[9] = biological target: T1, human IL-17F homodimer; test: SPR Biacore T100, captured antibody, bivalent analyte model
[10] = biological target: T1, human IL-17F homodimer; test: cell-based or functional assay; remark: listed apart in the source
[11] = biological target: T2, human IL-17A homodimer; test: cell-based or functional assay; remark: listed apart in the source
[12] = biological target: T3, human IL-17A/F heterodimer; test: cell-based or functional assay; remark: listed apart in the source
[13] = biological target: T1, human IL-17F homodimer; test: SPR Biacore T100, captured antibody, bivalent analyte model; remark: listed apart in the source
[14] = biological target: T1, human IL-17F homodimer; test: cell-based or functional assay; remark: listed apart in the source
[15] = biological target: T2, human IL-17A homodimer; test: cell-based or functional assay; remark: listed apart in the source
[16] = biological target: T3, human IL-17A/F heterodimer; test: cell-based or functional assay; remark: listed apart in the source
[17] = biological target: T3, human IL-17A/F heterodimer; test: SPR Biacore T100, captured antibody, bivalent analyte model; remark: listed apart in the source
[18] = biological target: T1, human IL-17F homodimer; test: cell-based or functional assay; remark: listed apart in the source
[19] = biological target: T2, human IL-17A homodimer; test: cell-based or functional assay; remark: listed apart in the source
[20] = biological target: T3, human IL-17A/F heterodimer; test: cell-based or functional assay; remark: listed apart in the source
[21] = biological target: T1, human IL-17F homodimer; test: cell-based or functional assay; remark: listed apart in the source
[22] = biological target: T2, human IL-17A homodimer; test: cell-based or functional assay; remark: listed apart in the source
[23] = biological target: T3, human IL-17A/F heterodimer; test: cell-based or functional assay; remark: listed apart in the source
[24] = biological target: T2, human IL-17A homodimer; test: SPR Biacore T100, captured antibody, bivalent analyte model; remark: listed apart in the source
[25] = biological target: human PDGF-C (human, UniProt Q9NRA1 235-345, limits assumed); test: cell-based or functional assay
[26] = biological target: human PDGF-D (human, UniProt Q9GZP0 250-370, limits assumed); test: cell-based or functional assay
[27] = biological target: human IL-23Rα/human IL-12Rβ1 on BaF3 transfectants (human, UniProt Q5VWK5 24-629; P42701 24-662); test: cell-based or functional assay
[28] = biological target: B3; test: SPR (Biacore T100): hIL-23R-Fc captured on protein A, IL-23 (purified wild-type, and wild-type expression supernatant diluted 1:5) injected 3 min; response 10 s before the end of the injection, reference subtracted
[29] = biological target: T1, human IL-17F homodimer; test: X-ray co-crystal structure

Sequence of human PDGF-D (Q9GZP0 250-370 limits assumed): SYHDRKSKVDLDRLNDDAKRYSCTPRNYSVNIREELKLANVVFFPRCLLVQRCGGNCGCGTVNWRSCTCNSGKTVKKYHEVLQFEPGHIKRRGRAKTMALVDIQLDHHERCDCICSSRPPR
Sequence of human PDGF-C (Q9NRA1 235-345 limits assumed): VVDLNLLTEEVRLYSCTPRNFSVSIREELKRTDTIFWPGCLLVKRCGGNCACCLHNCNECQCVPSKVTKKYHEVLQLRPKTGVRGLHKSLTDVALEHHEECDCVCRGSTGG

Binder: B1
- Kd [1]: 1 nM
- koff [1]: 0.003 s⁻¹
- kon [1]: 2e+06 M⁻¹ s⁻¹
- IC50, NIH/3T3/KZ170 NF-kB luciferase reporter [2]: 0.4 nM
- IC50, NIH/3T3/KZ170 NF-kB luciferase reporter [3]: 3 nM
- IC50, NIH/3T3/KZ170 NF-kB luciferase reporter [4]: 0.9 nM
- Kd [5]: 0.2 nM
- koff [5]: 0.0005 s⁻¹
- kon [5]: 2e+06 M⁻¹ s⁻¹
- IC50, NIH/3T3/KZ170 NF-kB luciferase reporter [6]: 0.24 nM
- IC50, NIH/3T3/KZ170 NF-kB luciferase reporter [7]: 1.4 nM
- IC50, NIH/3T3/KZ170 NF-kB luciferase reporter [8]: 0.26 nM
- Kd [9]: 0.1 nM
- koff [9]: 0.0002 s⁻¹
- kon [9]: 2e+06 M⁻¹ s⁻¹
- IC50, NIH/3T3/KZ170 NF-kB luciferase reporter [10]: 0.28 nM
- IC50, NIH/3T3/KZ170 NF-kB luciferase reporter [11]: 1.2 nM
- IC50, NIH/3T3/KZ170 NF-kB luciferase reporter [12]: 0.23 nM
- Kd [13]: 0.1 nM
- koff [13]: 0.0002 s⁻¹
- kon [13]: 2e+06 M⁻¹ s⁻¹
- IC50, NIH/3T3/KZ170 NF-kB luciferase reporter [14]: 0.24 nM
- IC50, NIH/3T3/KZ170 NF-kB luciferase reporter [15]: 1.3 nM
- IC50, NIH/3T3/KZ170 NF-kB luciferase reporter [16]: 0.27 nM
- Kd [17]: 0.2 nM
- koff [17]: 0.0005 s⁻¹
- kon [17]: 2e+06 M⁻¹ s⁻¹
- IC50, IL-6 induction in primary human fibroblasts (HFFF) [18]: 23 nM
- IC50, IL-6 induction in primary human fibroblasts (HFFF) [19]: 2 nM
- IC50, IL-6 induction in primary human fibroblasts (HFFF) [20]: 22 nM
- IC50, G-CSF induction in primary human SAEC [21]: 1.1 nM
- IC50, IL-6 induction in primary human fibroblasts (HFFF) [21]: 15 nM
- IC50, G-CSF induction in primary human SAEC [22]: 0.5 nM
- IC50, IL-6 induction in primary human fibroblasts (HFFF) [22]: 0.9 nM
- IC50, G-CSF induction in primary human SAEC [23]: 1.3 nM
- IC50, IL-6 induction in primary human fibroblasts (HFFF) [23]: 13 nM
- Kd [24]: 1 nM
- koff [24]: 0.003 s⁻¹
- kon [24]: 2e+06 M⁻¹ s⁻¹

Binder: B2
- IC50, NHLF proliferation (3H-thymidine) [25]: 0.09 nM
- IC50, NHLF proliferation (3H-thymidine) [26]: 20 nM

Binder: B3
- EC50, pSTAT3 in BaF3/huIL-23Ra/huIL-12Rb1 transfectants [27]: 21 pM

Binder: B4
- binding result [28]: binds

Binder: B5
- binding result [29]: binds

Source: patent publication US20170275357A1 (Bristol-Myers Squibb, published 2017)
